From publication PMC7824358, “The Influence of the Mixed DPC:SDS Micelle on the Structure and Oligomerization Process of the Human Cystatin C” (Membranes, 2020)

Experiments:
[1] = target: human cystatin C V57P variant (human) (UniProt P01034); experiment: SEC; analytical gel filtration, Superdex 75 PC 3.2/30, eluted with PBS; protein 30 μM in PBS incubated 24 h at 22 °C with dilution series of DPC:SDS (5:1) mixed micelle, DPC or SDS; dimer retention ca. 13.5 min, monomer ca. 16 min; dimer to monomers
[2] = target: the molecule itself; experiment: SEC; hCC WT incubated 24 h in 25 mM sodium acetate buffer pH 4.0, 150 mM NaCl, 1 mM benzamidine hydrochloride; dimer separated from monomer on Superdex 75 10/300 GL; monomer to dimer

## human cystatin C V57P variant (from UniProt P01034 27-146) (natural protein)
[1]
  stoichiometry N: 2

B1: human cystatin C (hCC) wild-type (natural protein, UniProt P01034 27-146, looked up)
chain: SSPGKPPRLVGGPMDASVEEEGVRRALDFAVGEYNKASNDMYHSRALQVVRARKQIVAGVNYFLDVELGRTTCTKTQPNLDNCPFHDQPHLKRKAFCSFQIYAVPWQGTMTLSKSTCQDA
notes: human cystatin C, expressed from the pHD313 vector behind the E. coli OmpA signal peptide; Used as a monomer sample and as a dimer sample made by incubation at pH 4.0 and separated by SEC; also called hCC WT; WT
[2]
  stoichiometry N: 2
